# Measured values from the supplement of paper PMC10567573.
# B1: RTN1 (parent)
# chain: VVAYLALAALSATISFRIYKSVLQ
# B2: SNAP91 (parent)
# chain: FAAPSPATTASPAKVDSSGVIDLF
# Variants of: B1
# Experiment: protein stability index of a GFP-peptide fusion (GPS, HEK-293T) (PSI 1-6); higher = more stable
# Conditions: c terminus: a fixed tail appended
# 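Further: lentivirally expressed fusions sorted by FACS into six bins by GFP to DsRed ratio, PSI derived from sequencing read proportions per bin multiplied by bin number.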
row,Variant,protein stability index
1,VVADLALAALSATISFRIYKSVLQ,2.35
2,VVAHLALAALSATISFRIYKSVLQ,2.65
3,VVAELALAALSATISFRIYKSVLQ,2.1
4,VVANLALAALSATISFRIYKSVLQ,3.01
5,VVACLALAALSATISFRIYKSVLQ,3.23
6,VVAPLALAALSATISFRIYKSVLQ,1.75
7,VVAGLALAALSATISFRIYKSVLQ,4.1
8,VVAMLALAALSATISFRIYKSVLQ,2.6
9,VVAILALAALSATISFRIYKSVLQ,4.11
10,VVATLALAALSATISFRIYKSVLQ,4.26
11,VVAQLALAALSATISFRIYKSVLQ,2.68
12,VVAWLALAALSATISFRIYKSVLQ,1.9
13,VVALLALAALSATISFRIYKSVLQ,2.37
14,VVARLALAALSATISFRIYKSVLQ,3
15,VVAFLALAALSATISFRIYKSVLQ,2.5
16,VVAKLALAALSATISFRIYKSVLQ,2.3
17,VVAYLALKALSATISFRIYKSVLQ,2.2
18,VVAYLALSALSATISFRIYKSVLQ,1.95
19,VVAYLALFALSATISFRIYKSVLQ,1.68
20,VVAYLALIALSATISFRIYKSVLQ,3.23
21,VVAYLALRALSATISFRIYKSVLQ,2.18
22,VVAYLALMALSATISFRIYKSVLQ,4.1
23,VVAYLALLALSATISFRIYKSVLQ,2.31
24,VVAYLALWALSATISFRIYKSVLQ,3.8
25,VVAYLALCALSATISFRIYKSVLQ,1.26

row,Variant,protein stability index
1,VVAYLALNALSATISFRIYKSVLQ,1.69
2,VVAYLALPALSATISFRIYKSVLQ,3.27
3,VVAYLALHALSATISFRIYKSVLQ,1.75
4,VVAYLALTALSATISFRIYKSVLQ,2.32
5,VVAYLALEALSATISFRIYKSVLQ,2.46
6,VVAYLALDALSATISFRIYKSVLQ,2.28
7,VVAYLALQALSATISFRIYKSVLQ,4.3
8,VVAYLALYALSATISFRIYKSVLQ,2.76
9,VVAYLTLAALSATISFRIYKSVLQ,2.77
10,VVAYLMLAALSATISFRIYKSVLQ,3.4
11,VVAYLRLAALSATISFRIYKSVLQ,3.2
12,VVAYLDLAALSATISFRIYKSVLQ,3.37
13,VVAYLKLAALSATISFRIYKSVLQ,2.74
14,VVAYLELAALSATISFRIYKSVLQ,2.6
15,VVAYLSLAALSATISFRIYKSVLQ,2.88
16,VVAYLVLAALSATISFRIYKSVLQ,3.12
17,VVAYLFLAALSATISFRIYKSVLQ,3.07
18,VVAYLYLAALSATISFRIYKSVLQ,2.9
19,VVAYLPLAALSATISFRIYKSVLQ,2.32
20,VVAYLGLAALSATISFRIYKSVLQ,4.25
21,VVAYLCLAALSATISFRIYKSVLQ,2.86
22,VVAYLILAALSATISFRIYKSVLQ,1.91
23,VVAYLQLAALSATISFRIYKSVLQ,1.42
24,VVAYLHLAALSATISFRIYKSVLQ,2.32
25,VVAYLWLAALSATISFRIYKSVLQ,3.42

row,Variant,protein stability index
1,VVAYLALAALFATISFRIYKSVLQ,2.3
2,VVAYLALAALCATISFRIYKSVLQ,1.28
3,VVAYLALAALHATISFRIYKSVLQ,2.33
4,VVAYLALAALDATISFRIYKSVLQ,3.61
5,VVAYLALAALAATISFRIYKSVLQ,3.26
6,VVAYLALAALGATISFRIYKSVLQ,2.02
7,AVAYLALAALSATISFRIYKSVLQ,3.01
8,MVAYLALAALSATISFRIYKSVLQ,2.21
9,RVAYLALAALSATISFRIYKSVLQ,2.44
10,WVAYLALAALSATISFRIYKSVLQ,1.72
11,TVAYLALAALSATISFRIYKSVLQ,2.62
12,FVAYLALAALSATISFRIYKSVLQ,2.66
13,KVAYLALAALSATISFRIYKSVLQ,1.61
14,HVAYLALAALSATISFRIYKSVLQ,1.68
15,SVAYLALAALSATISFRIYKSVLQ,2.55
16,DVAYLALAALSATISFRIYKSVLQ,2.2
17,LVAYLALAALSATISFRIYKSVLQ,2.56
18,YVAYLALAALSATISFRIYKSVLQ,2.03
19,QVAYLALAALSATISFRIYKSVLQ,2.13
20,GVAYLALAALSATISFRIYKSVLQ,1.96
21,IVAYLALAALSATISFRIYKSVLQ,2.75
22,EVAYLALAALSATISFRIYKSVLQ,3.26
23,NVAYLALAALSATISFRIYKSVLQ,2.64
24,CVAYLALAALSATISFRIYKSVLQ,1.99
25,VVAYLAGAALSATISFRIYKSVLQ,3.96

row,Variant,protein stability index
1,VVAYLARAALSATISFRIYKSVLQ,2.26
2,VVAYLAYAALSATISFRIYKSVLQ,3.97
3,VVAYLATAALSATISFRIYKSVLQ,2.52
4,VVAYLAEAALSATISFRIYKSVLQ,2.39
5,VVAYLADAALSATISFRIYKSVLQ,1.99
6,VVAYLAIAALSATISFRIYKSVLQ,2.46
7,VVAYLAMAALSATISFRIYKSVLQ,2.91
8,VVAYLAFAALSATISFRIYKSVLQ,2.47
9,VVAYLAWAALSATISFRIYKSVLQ,4.04
10,VVAYLANAALSATISFRIYKSVLQ,2.38
11,VVAYLAPAALSATISFRIYKSVLQ,2.7
12,VVAYLAQAALSATISFRIYKSVLQ,2.07
13,VVAYLAVAALSATISFRIYKSVLQ,3.13
14,VVAYLAAAALSATISFRIYKSVLQ,3.97
15,VVAYLASAALSATISFRIYKSVLQ,2.63
16,VVAYLAKAALSATISFRIYKSVLQ,3.13
17,VVAYEALAALSATISFRIYKSVLQ,1.58
18,VVAYWALAALSATISFRIYKSVLQ,3.59
19,VVAYRALAALSATISFRIYKSVLQ,1.78
20,VVAYGALAALSATISFRIYKSVLQ,1.95
21,VVAYPALAALSATISFRIYKSVLQ,2.31
22,VVAYKALAALSATISFRIYKSVLQ,1.89
23,VVAYDALAALSATISFRIYKSVLQ,2.42
24,VVAYIALAALSATISFRIYKSVLQ,2.01
25,VVAYVALAALSATISFRIYKSVLQ,1.63

row,Variant,protein stability index
1,VVAYQALAALSATISFRIYKSVLQ,2.8
2,VVAYYALAALSATISFRIYKSVLQ,1.83
3,VVAYNALAALSATISFRIYKSVLQ,2.34
4,VVAYMALAALSATISFRIYKSVLQ,2.54
5,VVAYAALAALSATISFRIYKSVLQ,2.47
6,VVAYFALAALSATISFRIYKSVLQ,3.22
7,VVAYTALAALSATISFRIYKSVLQ,2.43
8,VVAYHALAALSATISFRIYKSVLQ,2.85
9,VVAYLALAKLSATISFRIYKSVLQ,2.25
10,VVAYLALADLSATISFRIYKSVLQ,2.48
11,VVAYLALALLSATISFRIYKSVLQ,2.44
12,VVAYLALAILSATISFRIYKSVLQ,2.31
13,VVAYLALAGLSATISFRIYKSVLQ,1.53
14,VVAYLALAPLSATISFRIYKSVLQ,3.77
15,VVAYLALATLSATISFRIYKSVLQ,2.52
16,VVAYLALAYLSATISFRIYKSVLQ,3.25
17,VVAYLALAELSATISFRIYKSVLQ,2.85
18,VVAYLALAFLSATISFRIYKSVLQ,2.86
19,VVAYLALACLSATISFRIYKSVLQ,2.86
20,VVAYLALAVLSATISFRIYKSVLQ,2.94
21,VVAYLALAWLSATISFRIYKSVLQ,1.94
22,VVAYLALASLSATISFRIYKSVLQ,2.41
23,VVAYLALAMLSATISFRIYKSVLQ,1.46
24,VVAYLALANLSATISFRIYKSVLQ,3.05
25,VVYYLALAALSATISFRIYKSVLQ,3.35

row,Variant,protein stability index
1,VVQYLALAALSATISFRIYKSVLQ,2.68
2,VVRYLALAALSATISFRIYKSVLQ,2.69
3,VVGYLALAALSATISFRIYKSVLQ,1.88
4,VVHYLALAALSATISFRIYKSVLQ,2.2
5,VVMYLALAALSATISFRIYKSVLQ,2.6
6,VVVYLALAALSATISFRIYKSVLQ,2.16
7,VVCYLALAALSATISFRIYKSVLQ,3.67
8,VVPYLALAALSATISFRIYKSVLQ,2.66
9,VVWYLALAALSATISFRIYKSVLQ,2.72
10,VVFYLALAALSATISFRIYKSVLQ,2.82
11,VVDYLALAALSATISFRIYKSVLQ,2.01
12,VVKYLALAALSATISFRIYKSVLQ,1.08
13,VVEYLALAALSATISFRIYKSVLQ,3.04
14,VVLYLALAALSATISFRIYKSVLQ,2.06
15,VVIYLALAALSATISFRIYKSVLQ,2.65
16,VEAYLALAALSATISFRIYKSVLQ,2.41
17,VAAYLALAALSATISFRIYKSVLQ,2.61
18,VSAYLALAALSATISFRIYKSVLQ,2.18
19,VKAYLALAALSATISFRIYKSVLQ,4.51
20,VHAYLALAALSATISFRIYKSVLQ,4.06
21,VPAYLALAALSATISFRIYKSVLQ,1.66
22,VDAYLALAALSATISFRIYKSVLQ,2.43
23,VIAYLALAALSATISFRIYKSVLQ,1.66
24,VLAYLALAALSATISFRIYKSVLQ,2.63
25,VYAYLALAALSATISFRIYKSVLQ,3

row,Variant,protein stability index
1,VTAYLALAALSATISFRIYKSVLQ,3.88
2,VMAYLALAALSATISFRIYKSVLQ,2.66
3,VFAYLALAALSATISFRIYKSVLQ,2.9
4,VRAYLALAALSATISFRIYKSVLQ,3.31
5,VQAYLALAALSATISFRIYKSVLQ,3.03
6,VCAYLALAALSATISFRIYKSVLQ,3.71
7,VNAYLALAALSATISFRIYKSVLQ,2.97
8,VWAYLALAALSATISFRIYKSVLQ,1.31
9,VGAYLALAALSATISFRIYKSVLQ,1.72
10,VVAYLALAARSATISFRIYKSVLQ,1.98
11,VVAYLALAAQSATISFRIYKSVLQ,2.41
12,VVAYLALAAGSATISFRIYKSVLQ,3.08
13,VVAYLALAATSATISFRIYKSVLQ,2.51
14,VVAYLALAAASATISFRIYKSVLQ,2.38
15,VVAYLALAAMSATISFRIYKSVLQ,3.33
16,VVAYLALAANSATISFRIYKSVLQ,3.25
17,VVAYLALAAYSATISFRIYKSVLQ,2.83
18,VVAYLALAACSATISFRIYKSVLQ,2.2
19,VVAYLALAAFSATISFRIYKSVLQ,2.31
20,VVAYLALAAKSATISFRIYKSVLQ,2.42
21,VVAYLALAAWSATISFRIYKSVLQ,2.44
22,VVAYLALAAESATISFRIYKSVLQ,2.17
23,VVAYLALAAHSATISFRIYKSVLQ,2.74
24,VVAYLALAAPSATISFRIYKSVLQ,2.69

# Variants of: B2
# Experiment: as above
# Conditions: c terminus: a fixed tail appended
row,Variant,protein stability index
1,FAAPSPATTASPAKVDSSGVIDLI,3.34
2,FAAPSPATTASPAKVDSSGVIDLW,1.22
3,FAAPSPATTASPAKVDSSGVIDLV,3.99
4,FAAPSPATTASPAKVDSSGVIDLH,4.52
5,FAAPSPATTASPAKVDSSGVIDLN,4.1
6,FAAPSPATTASPAKVDSSGVIDLL,3.13
7,FAAPSPATTASPAKVDSSGVIDLQ,3.85
8,FAAPSPATTASPAKVDSSGVIDLP,4.31
9,FAAPSPATTASPAKVDSSGVIDLY,2.88
10,FAAPSPATTASPAKVDSSGVIDLT,3.75
11,FAAPSPATTASPAKVDSSGVIDLK,4.2
12,FAAPSPATTASPAKVDSSGVIDLS,3.77
13,FAAPSPATTASPAKVDSSGVIDLM,3.72
14,FAAPSPATTASPAKVDSSGVIDLR,3.56
